{"source": "the RNAGym collection of RNA variant scans (doi:10.7554/elife.80360)", "parents": {"B1": {"name": "HDV Ribozyme (parent)", "chain": "GGCCGGCAUGGUCCCAGCCUCCUCGCUGGCGCCGGCUGGGCAACAUUCCGAGGGGACCGUCCCCUCGGUAAUGGCGAAUGGGACCCA"}}}
{"variants_of": "B1", "assay": "self-cleavage, relative activity (ratio to wild type); higher = more cleavage; co-transcriptional"}
{"variant": "GGCCGGCAUGGUCCCAGCCUGCUCGCUGGCGCCGGCUGGGCGACAUUCCGAGGGGACCGUCCCCUCGGUAAUGGCGAAUGGGACCCA", "self-cleavage": 0.0573}
{"variant": "GGCCGGCAUGGUCCCAGCCUACUCGCUGGCGCCGGCUGGGCAACAUUCCGAGGGUACCGUCCCCUCGGUAAUGGCGAAUGGGACCCA", "self-cleavage": 0.0554}
{"variant": "GGCCGGCAUGGUCCCAGCCUACUCGCUGGCGCCGGCUGGGCAACAUUCCGAGGGAACCGUCCCCUCGGUAAUGGCGAAUGGGACCCA", "self-cleavage": 0.129}
{"variant": "GGCCGGCAUGGUCCCAGCCUACUCGCUGGCGCCGGCUGGGCAACAUUCCGAGGGGACCGUCCCCUCGGCAAUGGCGAAUGGGACCCA", "self-cleavage": 0.0426}
{"variant": "GGCCGGCAUGGUCCCAGCCUACUCGCUGGCGCCGGCUGGGCAACAUUCCGAGGGGACCGUCCCCUCGGUAAUGGCGAAUGGGAACCA", "self-cleavage": 0}
{"variant": "GGCCGGCAUGGUCCCAGCCUACUCGCUGGCGCCGGCUGGGCAACAUUCCGAGGGGACCGUCCCCUCGGUAAUGGAGAAUGGGACCCA", "self-cleavage": 0}
{"variant": "GGCCGGCAUGGUCCCAGCCUACUCGCUGGCGCCGGCUGGGCAACAUUCCGAGGGGACCGUCCCCUCUGUAAUGGCGAAUGGGACCCA", "self-cleavage": 0.04}
{"variant": "GGCCGGCAUGGUCCCAGCCUACUCGCUGGCGCCGGCUGGGCAACAUUCCGAGGGGACCGUCCCCUCCGUAAUGGCGAAUGGGACCCA", "self-cleavage": 0.137}
{"variant": "GGCCGGCAUGGUCCCAGCCUACUCGCUGGCGCCAGCUGGGCAACAUUCCGAGGGGACCGUCCCCUCGGUAAUGGCGAAUGGGACCCA", "self-cleavage": 0.119}
{"variant": "GGCCGGCAUGGUCCCAGCCUACUCGCUGGCCCCGGCUGGGCAACAUUCCGAGGGGACCGUCCCCUCGGUAAUGGCGAAUGGGACCCA", "self-cleavage": 0.0817}
{"variant": "GGCCGGCAUGGUCCCAGCCUACUCGCUGGCUCCGGCUGGGCAACAUUCCGAGGGGACCGUCCCCUCGGUAAUGGCGAAUGGGACCCA", "self-cleavage": 0.142}
{"variant": "GGCCGGCAUGGUCCCAGCCUACUCGCUGGCGCCGGCUUGGCAACAUUCCGAGGGGACCGUCCCCUCGGUAAUGGCGAAUGGGACCCA", "self-cleavage": 0.0665}
{"variant": "GGCCGGCAUGGUCCCAGCCUACUCGCUGGCGCCGGCUGGGCAACAUUCCGAGGUGACCGUCCCCUCGGUAAUGGCGAAUGGGACCCA", "self-cleavage": 0.0773}
{"variant": "GGCCGGCAUGGUCCCAGCCUACUCGCUGGCGCCGGCUGGGCAACAUUCCGAGGGGACCGUCCCCUCGGUAAUGGCGAAAGGGACCCA", "self-cleavage": 0.125}
{"variant": "GGCCGGCAUGGUCCCAGCCUGCUCGCUGGCGCCGGCUGGGCAACAUUCCGUGGGGACCGUCCCCUCGGUAAUGGCGAAUGGGACCCA", "self-cleavage": 0.0354}
{"variant": "GGCCGGCAUGGUCCCAGCCUGCUCGCUGGCGCCGGCUGGGCAACAUUCCGGGGGGACCGUCCCCUCGGUAAUGGCGAAUGGGACCCA", "self-cleavage": 0.131}
{"variant": "GGCCGGCAUGGUCCCAGCCUACUCGCUGGCGCCGACUGGGCAACAUUCCGAGGGGACCGUCCCCUCGGUAAUGGCGAAUGGGACCCA", "self-cleavage": 0.0804}
{"variant": "GGCCGGCAUGGUCCCAGCCUACUCGCUGGCGCCGCCUGGGCAACAUUCCGAGGGGACCGUCCCCUCGGUAAUGGCGAAUGGGACCCA", "self-cleavage": 0.177}
{"variant": "GGCCGGCAUGGUCCCAGCCUGCUCGCUGGCGCCGGCUGGGCAACAUUCCGAGGGGACCGUCCCCUCGGUACUGGCGAAUGGGACCCA", "self-cleavage": 0.0449}
{"variant": "GGCCGGCAUGGUCCCAGCCUGCUCGCUGGCGCCGGCUGGGCAACAUUCCGAGGGGACCGUCCCCUCGGUAGUGGCGAAUGGGACCCA", "self-cleavage": 0.0594}
{"variant": "GGCCGGCAUGGUCCCAGCCUACUCGCUCGCGCCGGCUGGGCAACAUUCCGAGGGGACCGUCCCCUCGGUAAUGGCGAAUGGGACCCA", "self-cleavage": 0}
{"variant": "GGCCGGCAUGGUCCCAGCCUACUCGCUGGCGCCGGCUGGGCAACAUACCGAGGGGACCGUCCCCUCGGUAAUGGCGAAUGGGACCCA", "self-cleavage": 0.0462}
{"variant": "GGCCGGCAUGGUCCCAGCCUACUCGCUGGCGCCGGCUGGGCAACAUUCCGAGGGGACCGUCCCCUCGGUAACGGCGAAUGGGACCCA", "self-cleavage": 0.101}
{"variant": "GGCCGGCAUGGUCCCAGCCUACUCGCUGGCGCCGGCUGGGCAACAUUCCGAGGGGACCGUCCCCUCGGUAAUGGCGAAUGGUACCCA", "self-cleavage": 0.0297}
{"variant": "GGCCGGCAUGGUCCCAGCCUACUCGCUGGCGCCGGCUGGGCAACAUUCCGAGGGGACCGUCCCCUCGGUAAUGGCGAAUGGCACCCA", "self-cleavage": 0.104}
{"variant": "GGCCGGCAUGGUCCCAGCCUACUCGCUGGCGCCGGCUGGGCAACAUUCCGAGGGGACCGUCCCCUCGGUAAUGGCGAAUGGAACCCA", "self-cleavage": 0.0594}
{"variant": "GGCCGGCAUGGUCCCAGCCUACUCGCUGGCGCCGGCUGGGCAACAUUCCGAGCGGACCGUCCCCUCGGUAAUGGCGAAUGGGACCCA", "self-cleavage": 0.0639}
{"variant": "GGCCGGCAUGGUCCCAGCCUACUCGCUGGCGCCGGCCGGGCAACAUUCCGAGGGGACCGUCCCCUCGGUAAUGGCGAAUGGGACCCA", "self-cleavage": 0.196}
{"variant": "GGCCGGCAUGGUCCCAGCCUACUCGCUGGCGCCGGCAGGGCAACAUUCCGAGGGGACCGUCCCCUCGGUAAUGGCGAAUGGGACCCA", "self-cleavage": 0}
{"variant": "GGCCGGCAUGGUCCCAGCCUACUCGCUGUCGCCGGCUGGGCAACAUUCCGAGGGGACCGUCCCCUCGGUAAUGGCGAAUGGGACCCA", "self-cleavage": 0}
{"variant": "GGCCGGCAUGGUCCCAGCCUACUCGCUGGCGCCGGCUGGGCAACACUCCGAGGGGACCGUCCCCUCGGUAAUGGCGAAUGGGACCCA", "self-cleavage": 0.0536}
{"variant": "GGCCGGCAUGGUCCCAGCCUACUCGCUGGCGCCGGCUGGGCAACAUUCCGAGGGGACCGUCCCCUCGGUAAUCGCGAAUGGGACCCA", "self-cleavage": 0.0678}
